Measurements from patent publication US8546537B2, “Streptavidin having low immunogenicity and use thereof” (The University of Tokyo, priority 2009, dated 2013).

Columns and labels:
[1] = Thermal shift assay of streptavidin proteins; format: physicochemical; details: at 100° C., 10 μM protein, 1×PBS, guanidine-HCl 0 to 2 M, SYPRO Orange
Method: The following 5 types of proteins, a native streptavidin, mcSA040, mcSA072, mcSA314 and mcSA414, which had been purified in accordance with Example 2, were subjected to a thermal shift assay (Vedadi, (2006), Proc Natl Sci USA., 103(43), 15835-15840). Each sample was prepared in a real-time PCR tube (PCR Tube Strip, Flat Cap Strip; manufactured by BIO-RAD), so that the samples could have the following final concentrations. That is, SYPRO Orange was 5000-fold diluted, the concentration of each protein was set at 10 μM, and the buffer was set at 1×PBS. Moreover, for the purpose of accelerating the heat denaturation of each protein, the concentration of a guanidine-HCl solution was set at 0 M, 0.5 M, 1M and 2 M as a final concentration. The reaction volume was set at 20 μl. The CFX96 Real-Time PCR detection system (manufactured by BIO-RAD) was used as a measurement device. As a program mode of the CFX96 Real-Time PCR detection system, a program mode for use in FRET detection was used. The reaction and detection were carried out by a program for increasing the temperature by 0.5° C. every 10 seconds.

[2] = Kinetics analysis of interaction between streptavidin protein and biotin using Biacore biosensor; format: binding; details: for Association rate constant ka / Dissociation rate constant kd: Biacore 3000, biotinylated mouse antibody captured, 1:1 binding model; for Kd: Biacore 3000, obtained from kd/ka, read-out: Dissociation constant Kd
Method: As a ligand (a substance to be attached to a sensor chip) used for a Biacore (registered trademark) biosensor, an anti-mouse IgG antibody (manufactured by GE Healthcare Biosciences) was used. On the other hand, as analytes (substances to be supplied to the flow channel system), a biotinylated mouse antibody and various types of mutant streptavidins were prepared, and intermolecular interaction was then analyzed using Biacore (registered trademark) 3000 (a biosensor based on the principle of surface plasmon resonance; manufactured by GE Healthcare Biosciences). The anti-mouse IgG antibody was immobilized on all of the flow cells of a CM5 sensor chip according to an amine coupling method. The amount of the antibody immobilized on each flow cell was 8000 RU. Subsequently, as references, non-biotinylated mouse antibodies were captured onto Flow Cells 1 and 3, and biotinylated mouse antibodies were captured onto Flow Cells 2 and 4. Various types of streptavidins were loaded in a running buffer (HBS-EP; manufactured by GE Healthcare Biosciences) on Flow Cells 1 and 2, or 3 and 4, at a flow rate of 20 μl/min for 2 minutes. Thereafter, dissociation of each sample was monitored for 7 minutes. Thereafter, a reproduction operation was carried out using a 10 mM glycine-HCl buffer (pH 1.7) (manufactured by GE Healthcare Biosciences), and repeat measurement was then carried out. Using the analysis software BIAevaluation ver. 4.1, a reaction kinetics analysis was performed on a 1:1 binding model based on the obtained sensorgram, so as to calculate an association rate constant (ka) and a dissociation rate constant (kd). A dissociation constant (Kd) was obtained from kd/ka.
The results of the kinetics analysis of the intermolecular interaction of a recombinant streptavidin and a biotin, which was carried out using Biacore (registered trademark) 3000 (a biosensor based on the principle of surface plasmon resonance; manufactured by GE Healthcare Biosciences), are as shown in Table 2.

ROBO1 = ROBO1 (Homo sapiens, UniProt Q9Y6N7); experiment: Isothermal Titration calorimetry (ITC) of B5209B mouse-scFv-mcSA414 and ROBO1; format: binding
Sequence of ROBO1 (Q9Y6N7 26-1651, species assumed): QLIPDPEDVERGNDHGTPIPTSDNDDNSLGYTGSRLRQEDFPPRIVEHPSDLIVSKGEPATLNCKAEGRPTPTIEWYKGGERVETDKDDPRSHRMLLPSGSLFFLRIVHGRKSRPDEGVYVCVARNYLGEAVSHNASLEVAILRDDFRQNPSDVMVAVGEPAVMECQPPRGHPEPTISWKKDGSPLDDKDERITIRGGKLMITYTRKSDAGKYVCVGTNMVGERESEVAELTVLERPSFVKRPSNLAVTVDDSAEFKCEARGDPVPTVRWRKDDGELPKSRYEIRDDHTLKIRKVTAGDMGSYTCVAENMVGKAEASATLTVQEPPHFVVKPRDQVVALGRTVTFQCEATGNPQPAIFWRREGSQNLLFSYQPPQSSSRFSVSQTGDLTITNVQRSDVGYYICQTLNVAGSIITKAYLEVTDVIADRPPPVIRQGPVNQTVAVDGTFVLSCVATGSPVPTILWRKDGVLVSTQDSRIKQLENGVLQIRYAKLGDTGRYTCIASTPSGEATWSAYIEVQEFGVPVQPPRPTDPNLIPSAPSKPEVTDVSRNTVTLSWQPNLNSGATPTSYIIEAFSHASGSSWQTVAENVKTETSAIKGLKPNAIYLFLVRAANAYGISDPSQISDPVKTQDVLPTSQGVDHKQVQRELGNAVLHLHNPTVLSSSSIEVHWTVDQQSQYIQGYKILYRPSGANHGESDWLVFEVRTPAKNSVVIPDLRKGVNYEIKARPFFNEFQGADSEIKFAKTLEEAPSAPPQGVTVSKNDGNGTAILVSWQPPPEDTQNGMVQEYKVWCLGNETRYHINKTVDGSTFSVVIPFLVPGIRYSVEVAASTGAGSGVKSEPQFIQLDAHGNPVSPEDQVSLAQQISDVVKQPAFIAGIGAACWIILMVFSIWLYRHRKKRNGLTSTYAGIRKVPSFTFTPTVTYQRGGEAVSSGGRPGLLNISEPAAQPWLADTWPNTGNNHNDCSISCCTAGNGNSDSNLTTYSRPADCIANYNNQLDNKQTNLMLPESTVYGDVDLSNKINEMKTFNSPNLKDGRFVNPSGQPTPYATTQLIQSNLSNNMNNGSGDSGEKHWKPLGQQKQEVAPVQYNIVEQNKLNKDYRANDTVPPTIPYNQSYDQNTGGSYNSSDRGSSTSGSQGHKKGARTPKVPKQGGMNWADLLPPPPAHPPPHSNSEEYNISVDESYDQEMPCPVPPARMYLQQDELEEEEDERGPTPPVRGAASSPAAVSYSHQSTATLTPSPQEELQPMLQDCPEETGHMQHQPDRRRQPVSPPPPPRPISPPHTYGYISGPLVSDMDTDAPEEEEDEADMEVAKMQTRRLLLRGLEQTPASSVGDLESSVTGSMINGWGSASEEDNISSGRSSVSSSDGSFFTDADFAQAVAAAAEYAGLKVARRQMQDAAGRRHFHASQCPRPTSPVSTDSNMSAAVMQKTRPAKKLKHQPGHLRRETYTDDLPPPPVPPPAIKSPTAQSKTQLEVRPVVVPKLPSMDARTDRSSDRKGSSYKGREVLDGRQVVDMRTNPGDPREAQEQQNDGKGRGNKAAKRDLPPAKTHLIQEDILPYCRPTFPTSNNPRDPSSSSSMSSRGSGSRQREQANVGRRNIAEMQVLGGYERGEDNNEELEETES
From the text: By Isothermal Titration calorimetry (ITC), the interaction of B5209B mouse-scFv-mcSA414 and ROBO1 was subjected to […] analysis.

[3] = Differential Scanning calorimetry (DSC) thermal stability; format: physicochemical; details: PBS
Method: By Differential Scanning calorimetry (DSC), the thermal stability of B5209B mouse-scFv-mcSA414 was evaluated. PBS was used as a solvent. […] Accordingly, the temperature necessary for denaturation of the scFV domain of B5209B mouse-scFv-SA is assumed to be Tm 51.4° C., and the temperature necessary for the complete denaturation of a single molecule thereof is assumed to be Tm 108° C. Moreover, since the temperature for dissociation of a streptavidin domain tetramer was not detected, it is assumed that the streptavidin was completely denatured without the dissociation of a tetramer.

Molecule | Association rate constant ka [2] | Dissociation rate constant kd [2] | Kd [2] | other results
mcSA040: mutant core streptavidin with Y83S, R84K, E116Q (protein) core streptavidin subunit: AEAGITGTWYNQLGSTFIVTAGADGALTGTYESAVGNAESRYVLTGRYDSAPATDGSGTALGWTVAWKNNSKNAHSATTWSGQYVGGAEARINTQWLLTSGTTQANAWKSTLVGHDTFTKVKPSAAS |  |  |  | thermal stability compared with native streptavidin [1]: thermal stability equivalent to that of the native streptavidin
mcSA324: mutant core streptavidin with Y22T, Y83S, R84K, E101D, R103K, E116N (protein) core streptavidin subunit: AEAGITGTWTNQLGSTFIVTAGADGALTGTYESAVGNAESRYVLTGRYDSAPATDGSGTALGWTVAWKNNSKNAHSATTWSGQYVGGADAKINTQWLLTSGTTNANAWKSTLVGHDTFTKVKPSAAS | 3.26 × 10^5 M^−1 S^−1 | 7.18 × 10^−5 S^−1 | 0.22 nM | 
mcSA030: mutant core streptavidin with Y83S, R84K, E116N (protein) core streptavidin subunit: AEAGITGTWYNQLGSTFIVTAGADGALTGTYESAVGNAESRYVLTGRYDSAPATDGSGTALGWTVAWKNNSKNAHSATTWSGQYVGGAEARINTQWLLTSGTTNANAWKSTLVGHDTFTKVKPSAAS |  | 1.55 × 10^−4 S^−1 | 0.399 nM | 
mcSA314: mutant core streptavidin with Y22S, Y83S, R84K, E101D, R103K, E116N (protein) core streptavidin subunit: AEAGITGTWSNQLGSTFIVTAGADGALTGTYESAVGNAESRYVLTGRYDSAPATDGSGTALGWTVAWKNNSKNAHSATTWSGQYVGGADAKINTQWLLTSGTTNANAWKSTLVGHDTFTKVKPSAAS | 5.99 × 10^5 M^−1 S^−1 | 1.58 × 10^−4 S^−1 | 0.264 nM | thermal stability compared with native streptavidin [1]: thermal stability equivalent to that of the native streptavidin
mcSA124: mutant core streptavidin with Y22T, Y83A, R84K, E101D, R103K, E116N (protein) core streptavidin subunit: AEAGITGTWTNQLGSTFIVTAGADGALTGTYESAVGNAESRYVLTGRYDSAPATDGSGTALGWTVAWKNNAKNAHSATTWSGQYVGGADAKINTQWLLTSGTTNANAWKSTLVGHDTFTKVKPSAAS | 3.06 × 10^5 M^−1 S^−1 | 5.38 × 10^−5 S^−1 | 0.176 nM | 
mcSA214: mutant core streptavidin with Y22S, Y83A, R84K, E101D, R103K, E116Q (protein) core streptavidin subunit: AEAGITGTWSNQLGSTFIVTAGADGALTGTYESAVGNAESRYVLTGRYDSAPATDGSGTALGWTVAWKNNAKNAHSATTWSGQYVGGADAKINTQWLLTSGTTQANAWKSTLVGHDTFTKVKPSAAS | 2.64 × 10^5 M^−1 S^−1 | 1.21 × 10^−4 S^−1 | 0.459 nM | 
mcSA424: mutant core streptavidin with Y22T, Y83S, R84K, E101D, R103K, E116Q (protein) core streptavidin subunit: AEAGITGTWTNQLGSTFIVTAGADGALTGTYESAVGNAESRYVLTGRYDSAPATDGSGTALGWTVAWKNNSKNAHSATTWSGQYVGGADAKINTQWLLTSGTTQANAWKSTLVGHDTFTKVKPSAAS | 1.32 × 10^5 M^−1 S^−1 | 1.12 × 10^−4 S^−1 | 0.845 nM | 
mcSA114: mutant core streptavidin with Y22S, Y83A, R84K, E101D, R103K, E116N (protein) core streptavidin subunit: AEAGITGTWSNQLGSTFIVTAGADGALTGTYESAVGNAESRYVLTGRYDSAPATDGSGTALGWTVAWKNNAKNAHSATTWSGQYVGGADAKINTQWLLTSGTTNANAWKSTLVGHDTFTKVKPSAAS | 3.61 × 10^5 M^−1 S^−1 | 9.92 × 10^−5 S^−1 | 0.274 nM | 
mcSA020: mutant core streptavidin with Y83A, R84K, E116Q (protein) core streptavidin subunit: AEAGITGTWYNQLGSTFIVTAGADGALTGTYESAVGNAESRYVLTGRYDSAPATDGSGTALGWTVAWKNNAKNAHSATTWSGQYVGGAEARINTQWLLTSGTTQANAWKSTLVGHDTFTKVKPSAAS |  | 1.60 × 10^−4 S^−1 | 0.427 nM | 
mcSA010: mutant core streptavidin with Y83A, R84K, E116N (protein) core streptavidin subunit: AEAGITGTWYNQLGSTFIVTAGADGALTGTYESAVGNAESRYVLTGRYDSAPATDGSGTALGWTVAWKNNAKNAHSATTWSGQYVGGAEARINTQWLLTSGTTNANAWKSTLVGHDTFTKVKPSAAS |  | 8.96 × 10^−5 S^−1 | 0.225 nM | 
mcSA224: mutant core streptavidin with Y22T, Y83A, R84K, E101D, R103K, E116Q (protein) core streptavidin subunit: AEAGITGTWTNQLGSTFIVTAGADGALTGTYESAVGNAESRYVLTGRYDSAPATDGSGTALGWTVAWKNNAKNAHSATTWSGQYVGGADAKINTQWLLTSGTTQANAWKSTLVGHDTFTKVKPSAAS | 2.11 × 10^5 M^−1 S^−1 | 1.01 × 10^−4 S^−1 | 0.481 nM | 
mcSA414: mutant core streptavidin with Y22S, Y83S, R84K, E101D, R103K, E116Q (protein) core streptavidin subunit: AEAGITGTWSNQLGSTFIVTAGADGALTGTYESAVGNAESRYVLTGRYDSAPATDGSGTALGWTVAWKNNSKNAHSATTWSGQYVGGADAKINTQWLLTSGTTQANAWKSTLVGHDTFTKVKPSAAS | 2.31 × 10^5 M^−1 S^−1 | 5.18 × 10^−5 S^−1 | 0.243 nM | thermal stability compared with native streptavidin [1]: thermal stability equivalent to that of the native streptavidin
B5209B mouse-scFv-mcSA414: fusion of anti-ROBO1 monoclonal antibody B5209B mouse scFv and mcSA414, SEQ ID NO: 16 (protein, listed as Mus sp.) MAEVQLVESGGGVVQPGGSLKLSCAASGFTFSTYDMSWVRQTPDKRLELVATINSNGGSTYYPDSVKGRFTSSRDNAKNILYLQMSSLKSEDTAMYYCAREALLRPPYYALDYWGQGTSVTVSSAGGGGSGGGGSGGGGSDILDIQMTQSPASLSASVGETVTITCGASENIYGALTWYQRKQGKSPQLLIYGAINLADDKSSRFSGSGSGRQYSLKISSLHPDDVATYYCQNVLSTPFTFGSGTKLEIKAAGSSGSGSAAEAGITGTWSNQLGSTFIVTAGADGALTGTYESAVGNAESRYVLTGRYDSAPATDGSGTALGWTVAWKNNSKNAHSATTWSGQYVGGADAKINTQWLLTSGTTQANAWKSTLVGHDTFTKVKPSAASGARHHHHHH |  |  |  | binding ratio: molecules of ROBO1 bound to a tetramer (ROBO1): 2; change in ΔH compared with scFV (ROBO1): no significant change; reduction in affinity compared with scFV (ROBO1): approximately one order of magnitude; ΔS value compared with scFV (ROBO1): approximately 1/40; amount of enthalpy change (ΔH) (ROBO1; 25° C., PBS): -3.85 kcal/mol; amount of entropy change (ΔS) (ROBO1; 25° C., PBS): −22 J/mol·K; temperature for dissociation of a streptavidin domain tetramer [3]: not detected; temperature necessary for denaturation of the scFV domain (Tm) [3]: 51.4 °C; temperature necessary for the complete denaturation of a single molecule (Tm) [3]: 108 °C
